Target: LILRB2 (human) (UniProt Q8N423)
Assay: flow cytometry HLA-G blocking; hIgG4 isotype control

Chain of UniProt Q8N423 (Q8N423 22-597): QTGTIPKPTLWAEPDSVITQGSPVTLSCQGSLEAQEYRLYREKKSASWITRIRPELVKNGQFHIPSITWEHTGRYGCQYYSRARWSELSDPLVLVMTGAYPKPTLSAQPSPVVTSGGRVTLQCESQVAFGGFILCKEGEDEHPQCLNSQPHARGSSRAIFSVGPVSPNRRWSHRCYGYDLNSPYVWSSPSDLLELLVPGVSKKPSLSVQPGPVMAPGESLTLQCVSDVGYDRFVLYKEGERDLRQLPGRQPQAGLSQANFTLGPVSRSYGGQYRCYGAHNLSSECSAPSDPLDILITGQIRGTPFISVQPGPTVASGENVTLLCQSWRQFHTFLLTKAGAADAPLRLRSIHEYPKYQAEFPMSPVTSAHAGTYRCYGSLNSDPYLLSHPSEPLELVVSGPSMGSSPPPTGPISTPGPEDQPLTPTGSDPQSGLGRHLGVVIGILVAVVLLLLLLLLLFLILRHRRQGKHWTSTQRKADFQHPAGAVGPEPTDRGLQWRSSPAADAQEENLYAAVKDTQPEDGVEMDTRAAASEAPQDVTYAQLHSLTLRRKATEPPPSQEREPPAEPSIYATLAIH

- IC50: > 66.7 nM
Substance: Isotype
